This is an account of results in publication PMC3408419 (Molecular Biology of the Cell, 2012).

For orientation: stoichiometry N means a count of units in the complex or per binding partner.

Values joined by “and” are separate entries in the source; they are usually repeats but may differ in a detail not shown here. Identical values can stand only once.

The target in assay [1] is MBP-Sec16-mOrange (S. cerevisiae) (UniProt P48415). The experiment in a line: single-molecule photobleaching.
A further assay has as its target Sec23/24 complex (S. cerevisiae, UniProt P15303;P40482). The experiment in a line: liposome flotation.

Sequence of Sec23/24 complex (P15303 whole entry, chain 1 of 2): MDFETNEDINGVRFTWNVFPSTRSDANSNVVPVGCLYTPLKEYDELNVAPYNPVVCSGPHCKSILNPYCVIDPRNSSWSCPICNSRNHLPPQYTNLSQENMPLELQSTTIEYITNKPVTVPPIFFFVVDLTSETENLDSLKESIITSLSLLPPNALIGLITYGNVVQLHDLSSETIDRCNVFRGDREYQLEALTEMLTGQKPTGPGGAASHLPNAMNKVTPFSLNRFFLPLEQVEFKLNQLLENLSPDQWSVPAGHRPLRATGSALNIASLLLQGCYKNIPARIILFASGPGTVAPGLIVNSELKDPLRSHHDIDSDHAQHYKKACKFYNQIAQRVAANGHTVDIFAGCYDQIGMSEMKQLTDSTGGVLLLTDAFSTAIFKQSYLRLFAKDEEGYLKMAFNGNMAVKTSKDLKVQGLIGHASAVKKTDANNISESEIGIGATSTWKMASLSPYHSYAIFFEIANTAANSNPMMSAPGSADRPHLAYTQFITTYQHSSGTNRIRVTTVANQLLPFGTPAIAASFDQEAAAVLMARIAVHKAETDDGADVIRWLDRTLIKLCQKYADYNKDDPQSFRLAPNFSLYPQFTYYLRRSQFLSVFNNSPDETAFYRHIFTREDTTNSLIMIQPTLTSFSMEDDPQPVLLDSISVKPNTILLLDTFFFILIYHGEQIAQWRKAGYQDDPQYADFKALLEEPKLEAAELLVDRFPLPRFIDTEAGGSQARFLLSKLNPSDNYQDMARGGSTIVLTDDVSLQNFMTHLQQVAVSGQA
Sequence of Sec23/24 complex (P40482 whole entry, chain 2 of 2): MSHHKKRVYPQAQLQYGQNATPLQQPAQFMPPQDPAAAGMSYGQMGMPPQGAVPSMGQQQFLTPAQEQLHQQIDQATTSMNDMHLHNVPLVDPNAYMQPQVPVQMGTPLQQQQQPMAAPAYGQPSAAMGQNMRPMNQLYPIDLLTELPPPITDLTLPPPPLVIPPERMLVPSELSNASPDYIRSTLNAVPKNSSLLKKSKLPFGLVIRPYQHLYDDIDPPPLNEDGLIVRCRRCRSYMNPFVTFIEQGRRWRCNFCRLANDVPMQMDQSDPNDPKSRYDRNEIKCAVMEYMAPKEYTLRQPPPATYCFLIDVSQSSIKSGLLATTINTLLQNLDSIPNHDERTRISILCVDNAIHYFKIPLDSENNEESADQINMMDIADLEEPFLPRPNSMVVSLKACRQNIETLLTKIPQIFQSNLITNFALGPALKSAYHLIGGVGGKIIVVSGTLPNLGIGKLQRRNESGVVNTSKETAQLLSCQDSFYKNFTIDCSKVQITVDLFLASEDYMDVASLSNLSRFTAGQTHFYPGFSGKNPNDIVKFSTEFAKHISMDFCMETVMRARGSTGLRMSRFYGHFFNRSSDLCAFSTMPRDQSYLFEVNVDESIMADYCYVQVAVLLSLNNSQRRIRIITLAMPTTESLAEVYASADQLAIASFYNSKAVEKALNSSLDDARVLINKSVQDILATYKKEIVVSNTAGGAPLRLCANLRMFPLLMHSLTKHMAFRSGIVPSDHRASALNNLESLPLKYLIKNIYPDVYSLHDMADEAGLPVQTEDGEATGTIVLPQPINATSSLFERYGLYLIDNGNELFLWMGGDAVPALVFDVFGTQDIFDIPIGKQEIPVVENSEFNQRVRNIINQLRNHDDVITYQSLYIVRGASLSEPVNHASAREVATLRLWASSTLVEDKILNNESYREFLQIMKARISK

On to MBP-Sec16-mOrange, P48415 1-2195, for which the stoichiometry N in assay [1] was 4 and 6.

B1: Sec13/31 complex (complex)
chain 1: MVVIANAHNELIHDAVLDYYGKRLATCSSDKTIKIFEVEGETHKLIDTLTGHEGPVWRVDWAHPKFGTILASCSYDGKVLIWKEENGRWSQIAVHAVHSASVNSVQWAPHEYGPLLLVASSDGKVSVVEFKENGTTSPIIIDAHAIGVNSASWAPATIEEDGEHNGTKESRKFVTGGADNLVKIWKYNSDAQTYVLESTLEGHSDWVRDVAWSPTVLLRSYLASVSQDRTCIIWTQDNEQGPWKKTLLKEEKFPDVLWRASWSLSGNVLALSGGDNKVTLWKENLEGKWEPAGEVHQ
chain 2: MVKLAEFSRTATFAWSHDKIPLLVSGTVSGTVDANFSTDSSLELWSLLAADSEKPIASLQVDSKFNDLDWSHNNKIIAGALDNGSLELYSTNEANNAINSMARFSNHSSSVKTVKFNAKQDNVLASGGNNGEIFIWDMNKCTESPSNYTPLTPGQSMSSVDEVISLAWNQSLAHVFASAGSSNFASIWDLKAKKEVIHLSYTSPNSGIKQQLSVVEWHPKNSTRVATATGSDNDPSILIWDLRNANTPLQTLNQGHQKGILSLDWCHQDEHLLLSSGRDNTVLLWNPESAEQLSQFPARGNWCFKTKFAPEAPDLFACASFDNKIEVQTLQNLTNTLDEQETETKQQESETDFWNNVSREESKEKPTVFHLQAPTWYGEPSPAAHWAFGGKLVQITPDGKGVSITNPKISGLESNTTLSEALKTKDFKPLINQRLVKVIDDVNEEDWNLLEKLSMDGTEEFLKEALAFDNDESDAQDDANNEKEDDGEEFFQQIETNFQPEGDFSLSGNIEQTISKNLVSGNIKSAVKNSLENDLLMEAMVIALDSNNERLKESVKNAYFAKYGSKSSLSRILYSISKREVDDLVENLDVSQWKFISKAIQNLYPNDIAQRNEMLIKLGDRLKENGHRQDSLTLYLAAGSLDKVASIWLSEFPDLEDKLKKDNKTIYEAHSECLTEFIERFTVFSNFINGSSTINNEQLIAKFLEFINLTTSTGNFELATEFLNSLPSDNEEVKTEKARVLIASGKSLPAQNPATATTSKAKYTNAKTNKNVPVLPTPGMPSTTSIPSMQAPFYGMTPGASANALPPKPYVPATTTSAPVHTEGKYAPPSQPSMASPFVNKTNSSTRLNSFAPPPNPYATATVPATNVSTTSIPQNTFAPIQPGMPIMGDYNAQSSSIPSQPPINAVSGQTPHLNRKANDGWNDLPLKVKEKPSRAKAVSVAPPNILSTPTPLNGIPANAASTMPPPPLSRAPSSVSMVSPPPLHKNSRVPSLVATSESPRASISNPYAPPQSSQQFPIGTISTANQTSNTAQVASSNPYAPPPQQRVATPLSGGVPPAPLPKASNPYAPTATTQPNGSSYPPTGPYTNNHTMTSPPPVFNKPPTGPPPISMKKRSNKLASIEQNPSQGATYPPTLSSSASPLQPSQPPTLASQVNTSAENVSHEIPADQQPIVDFLKEELARVTPLTPKEYSKQLKDCDKRLKILFYHLEKQDLLTQPTIDCLHDLVALMKEKKYKEAMVIHANIATNHAQEGGNWLTGVKRLIGIAEATLN
As for B1, the binding result in the assay with Sec23/24 complex is recorded as “binds”.
